Reference: the supplement of paper PMC7125110
± gives the standard error. For part of these data: This sample holds only a part of the variants without activity.

B1: glmS ribozyme (parent)
chain: AUAAAAGCGCCAGAACUACAGAAAUGUAGUUGACGAGGAGGAGGUUUAUCGAAUUUUCGGCGGAUGCCUCCAAA

Assays:
Details in all cases: with glucosamine-6-phosphate
glucosamine-6-phosphate [1] = variants of: B1; assay: kcat; higher = faster cleavage; RNA array
Summary of the method: (§1)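 Glucosamine-6-phosphate in HEPES/KCl/Mg(OAc)2 buffer, at 40 μM to 10 mM, was flowed over barcoded ribozyme variants transcribed in situ by E. coli RNA polymerase on sequenced MiSeq chips. Tracking was through a hybridised Cy3 probe at 37 °C. kobs, kcat and KM came from exponential decay fits and weighted Michaelis–Menten fits of normalised per-tile medians.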

glucosamine-6-phosphate [2] = variants of: B1; assay: self-cleavage kobs at 40 uM GlcN6P; higher = faster cleavage; RNA array
Summary of the method: as §1

glucosamine-6-phosphate [3] = variants of: B1; assay: self-cleavage kobs at 160 uM GlcN6P; higher = faster cleavage; RNA array
Summary of the method: as §1

glucosamine-6-phosphate [4] = variants of: B1; assay: self-cleavage kobs at 640 uM GlcN6P; higher = faster cleavage; RNA array
Summary of the method: as §1

glucosamine-6-phosphate [5] = variants of: B1; assay: self-cleavage kobs at 2500 uM GlcN6P; higher = faster cleavage; RNA array
Summary of the method: as §1

glucosamine-6-phosphate [6] = variants of: B1; assay: self-cleavage kobs at 10000 uM GlcN6P; higher = faster cleavage; RNA array
Summary of the method: as §1

glucosamine-6-phosphate [7] = variants of: B1; assay: KM; higher = weaker cofactor use; RNA array
Summary of the method: as §1

Row | Variant | kcat (glucosamine-6-phosphate [1]) [s⁻¹] | self-cleavage kobs at 40 uM GlcN6P (glucosamine-6-phosphate [2]) [s⁻¹] | self-cleavage kobs at 160 uM GlcN6P (glucosamine-6-phosphate [3]) [s⁻¹] | self-cleavage kobs at 640 uM GlcN6P (glucosamine-6-phosphate [4]) [s⁻¹] | self-cleavage kobs at 2500 uM GlcN6P (glucosamine-6-phosphate [5]) [s⁻¹] | self-cleavage kobs at 10000 uM GlcN6P (glucosamine-6-phosphate [6]) [s⁻¹] | KM (glucosamine-6-phosphate [7]) [µM]
1 | G29U A53G | 0.00448 ± 0.0019 | 0.000165 ± 2.5e-05 | 0.000262 ± 5.4e-05 | 0.000805 ± 0.00012 | 0.0021 ± 0.00029 | 0.00417 ± 0.00059 | 
2 | A15U U55C | 0.00268 ± 0.0003 | 0.000117 ± 2.1e-05 | 0.00039 ± 6.4e-05 | 0.00136 ± 0.00052 | 0.00158 ± 0.00036 | 0.00269 ± 0.00038 | 915 ± 160
3 | A39G A42U | 0.000818 ± 0.00016 | 4.94e-05 ± 1.9e-05 | 7.49e-05 ± 2.2e-05 | 0.00023 ± 5.4e-05 | 0.00045 ± 0.00014 | 0.000751 ± 0.00014 | 1510 ± 540
4 | U31G | 0.0277 ± 0.0077 | 0.000403 ± 7.4e-06 | 0.00114 ± 4.7e-05 | 0.00394 ± 0.00013 | 0.0126 ± 0.00057 | 0.0227 ± 0.00081 | 3080 ± 1000
5 | A12C G37U | < 1e-05 | < 1e-05 |  |  |  |  | 
6 | G63A C70G | 3.27e-05 ± 9.7e-06 |  |  | 4.94e-05 ± 1.3e-05 | 3.19e-05 ± 9.4e-06 |  | 
7 | A39G U46A | 0.00547 ± 0.00066 | 0.000116 ± 3.8e-05 | 0.000377 ± 0.0001 | 0.00116 ± 0.00029 | 0.00325 ± 0.00083 | 0.00435 ± 0.0014 | 2120 ± 360
8 | A42G U69C | 0.0183 ± 0.0052 | 0.00116 ± 0.00032 | 0.00336 ± 0.0014 | 0.0132 ± 0.0044 | 0.0132 ± 0.0041 |  | 599 ± 250
9 | G13U U30G | 0.000187 ± 3.9e-05 |  |  | 2.49e-05 ± 9.4e-06 | 0.000105 ± 1.2e-05 | 0.000136 ± 2e-05 | 2660 ± 1200
10 | A14C G32U | 0.0014 ± 6.9e-05 |  | 6.08e-05 ± 2.1e-05 | 0.000206 ± 3e-05 | 0.000576 ± 7.9e-05 | 0.00103 ± 0.00012 | 3610 ± 300
11 | C11G A15G | 1.01e-05 ± 1.4e-06 |  |  | < 1e-05 |  |  | 
12 | A12U C50A | 0.000111 ± 2.6e-06 |  |  | 3.27e-05 ± 1.3e-05 | 6.47e-05 ± 1.4e-05 | 9.58e-05 ± 1.2e-05 | 1660 ± 130
13 | C10G U56A | < 1e-05 |  | < 1e-05 | < 1e-05 |  |  | 
14 | A12C U47C | 0.00284 ± 0.00039 | 5.87e-05 ± 6.2e-06 | 0.000185 ± 3.6e-05 | 0.000953 ± 0.00013 | 0.00187 ± 0.00022 | 0.00226 ± 0.0002 | 1840 ± 380
15 | U57C C68U | 6e-05 ± 5.6e-07 |  |  |  | 3.96e-05 ± 1.4e-05 | 5.36e-05 ± 6e-06 | 1210 ± 64
16 | G29A G32A | 0.00111 ± 7.1e-05 | 2.33e-05 ± 8.5e-06 | 8.75e-05 ± 1.7e-05 | 0.000239 ± 6.2e-05 | 0.000588 ± 0.00013 | 0.000945 ± 0.00013 | 2000 ± 220

Row | Variant | kcat (glucosamine-6-phosphate [1]) [s⁻¹] | self-cleavage kobs at 40 uM GlcN6P (glucosamine-6-phosphate [2]) [s⁻¹] | self-cleavage kobs at 160 uM GlcN6P (glucosamine-6-phosphate [3]) [s⁻¹] | self-cleavage kobs at 640 uM GlcN6P (glucosamine-6-phosphate [4]) [s⁻¹] | self-cleavage kobs at 2500 uM GlcN6P (glucosamine-6-phosphate [5]) [s⁻¹] | self-cleavage kobs at 10000 uM GlcN6P (glucosamine-6-phosphate [6]) [s⁻¹] | KM (glucosamine-6-phosphate [7]) [µM]
17 | A12C U55C | 0.00941 ± 0.0032 | 0.000147 ± 2.6e-05 | 0.000402 ± 8.8e-05 | 0.00235 ± 0.00034 | 0.00417 ± 0.00083 | 0.00731 ± 0.0019 | 2710 ± 1200
18 | U31A G32A | 0.00184 ± 0.00083 |  | 6.66e-05 ± 1.2e-05 | 0.000222 ± 3.2e-05 | 0.000381 ± 7.7e-05 | 0.0014 ± 0.00017 | 
19 | C11U U55G | 0.0019 ± 0.00039 | 5.89e-05 ± 1.1e-05 | 0.000214 ± 4.9e-05 | 0.000351 ± 7.6e-05 | 0.00137 ± 0.00026 | 0.00164 ± 0.00016 | 1700 ± 660
20 | U49A C50G C71U | 1.88e-05 ± 4.4e-06 |  |  |  |  |  | 
21 | U57G C68A | 2.56e-05 ± 8.2e-06 |  |  | 3.37e-05 ± 1.4e-05 |  |  | 
22 | A64U C67U | 5.93e-05 ± 6.4e-06 |  |  |  | 5.62e-05 ± 8.7e-06 | 5.31e-05 ± 6.3e-06 | 
23 | U30A G38A | < 1e-05 | < 1e-05 |  |  |  | < 1e-05 | 
24 | C16A C61G | 1.13e-05 ± 1.7e-08 |  |  |  |  |  | 158.6 ± 1.5
25 | G35U G37C G60U | < 1e-05 | < 1e-05 |  | < 1e-05 |  |  | 
26 | G32A U49A U54G G59A C67U | 1.76e-05 ± 5.6e-06 |  |  |  |  |  | 
27 | A52U C71A | 0.000156 ± 2.6e-05 | < 1e-05 |  | 5.96e-05 ± 1.3e-05 |  | 0.000144 ± 1.6e-05 | 
28 | G40A U57A | 3.08e-05 ± 6.4e-06 | < 1e-05 | < 1e-05 |  | 3.99e-05 ± 1.3e-05 | 2.63e-05 ± 9.5e-06 | 
29 | G29U A64U | 1.06e-05 ± 2.5e-07 |  | < 1e-05 | < 1e-05 |  |  | 4920 ± 300
30 | U31A G66A | 0.0119 ± 0.0032 | 0.000105 ± 3.4e-05 | 0.000259 ± 6.1e-05 | 0.00114 ± 0.00021 | 0.00305 ± 0.00048 | 0.00767 ± 0.0017 | 6540 ± 2200
31 | U30G A33C | 4.15e-05 ± 6e-07 |  |  |  |  | 3.4e-05 ± 8.1e-06 | 2230 ± 140
32 | A15G C16G C71G | 0.000103 ± 1.4e-05 |  |  |  | 0.000115 ± 4e-05 | 9.34e-05 ± 2.6e-05 | 
